US20230174659A1 (GENERAL HOSPITAL, published 2023)

How the values were obtained:
[1] = biological target: T1, Amino acid residues 162-181 of human TNFR2 (human); assay: ELISA on plate-coated linear peptide S04080
T1 peptide: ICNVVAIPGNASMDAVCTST
Protocol: (§1) ELISA was also used to determine linear epitopes present on the extracellular surface of TNFR2. Linear peptides corresponding to various regions within the TNFR2 primary sequence were purchased from GenScript (Piscataway, NJ), diluted in coating buffer and placed on Immulon 4HBX Flat Bottom Microtiter Plates (Thermo Scientific) at a concentration of 1 µg/well. Primary TNFR2 agonistic antibodies (0.1 µg/well) were incubated with substrates. Secondary antibodies against rodent IgG were used to detect the primary antibodies. Absorbance was measured using the SPECTRAMAX^{®} 190 Absorbance Plate Reader and analyzed with SoftMax Pro 6.3 (Molecular Devices).

[2] = biological target: T2, Amino acid residues 122-141 of human TNFR2 (human); assay: ELISA on plate-coated linear peptide S04075
T2 peptide: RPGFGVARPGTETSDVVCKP
Protocol: as §1

[3] = biological target: T3, Amino acid residues 138-157 of human TNFR2 (human); assay: ELISA on plate-coated linear peptide S04077
T3 peptide: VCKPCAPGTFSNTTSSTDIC
Protocol: as §1

[4] = biological target: T4, Amino acid residues 106-125 of human TNFR2 (human); assay: ELISA on plate-coated linear peptide S04073; Affinity cell of this row is '2+-'
T4 sequence (peptide): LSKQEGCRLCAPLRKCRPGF

[5] = biological target: Full-length human TNFR2 (human) (UniProt P20333); assay: ELISA, immobilised human TNFR2 / TNFR2 peptide fragments, TNFRAG1 as primary antibody
[6] = biological target: T5, Amino acid residues 146-165 of human TNFR2 (human); assay: ELISA on plate-coated linear peptide S04078
T5 peptide: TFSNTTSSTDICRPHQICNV
Protocol: as §1

[7] = biological target: T6, Amino acid residues 66-85 of human TNFR2 (human); assay: ELISA on TNFR2 peptide, antibody alone; Affinity cell of this row is '-'
T6 sequence (peptide): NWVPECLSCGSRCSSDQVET

[8] = biological target: T7, Amino acid residues 74-93 of human TNFR2 (human); assay: as above
T7 sequence (peptide): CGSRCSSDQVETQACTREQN

[9] = biological target: T4, Amino acid residues 106-125 of human TNFR2 (human); assay: as above
[10] = biological target: T8, Amino acid residues 82-101 of human TNFR2 (human); assay: as above
T8 sequence (peptide): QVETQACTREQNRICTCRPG

[11] = biological target: T9, Amino acid residues 26-45 of human TNFR2 (human); assay: ELISA, immobilised TNFR2 peptide fragments, TNFRAG1 as primary antibody
T9 sequence (peptide): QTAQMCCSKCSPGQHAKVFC

[12] = biological target: T10, Amino acid residues 98-117 of human TNFR2 (human); assay: as above
T10 sequence (peptide): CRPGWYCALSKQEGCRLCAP

[13] = biological target: T11, Amino acid residues 34-53 of human TNFR2 (human); assay: as above
T11 sequence (peptide): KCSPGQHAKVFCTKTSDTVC

[14] = biological target: T6, Amino acid residues 66-85 of human TNFR2 (human); assay: as above
[15] = biological target: T12, Amino acid residues 108-127 of human TNFR2 (human); assay: as above
T12 sequence (peptide): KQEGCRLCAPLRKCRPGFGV

[16] = biological target: T7, Amino acid residues 74-93 of human TNFR2 (human); assay: as above
[17] = biological target: T4, Amino acid residues 106-125 of human TNFR2 (human); assay: as above
[18] = biological target: T8, Amino acid residues 82-101 of human TNFR2 (human); assay: as above
[19] = biological target: T1, Amino acid residues 162-181 of human …; assay: as above
Protocol: (§2) The binding of antibody to each of the synthesized peptides was tested in an ELISA format. Surface-immobilized peptide arrays were incubated with primary antibody solution (overnight at 4° C.). After washing, the peptide arrays were incubated with a 1/1000 dilution of an appropriate antibody peroxidase conjugate (SBA) for one hour at 25° C. After washing, the peroxidase substrate 2,2′-azino-di-3- ethylbenzthiazoline sulfonate (ABTS) and 2 µl/ml of 3 percent H₂O₂ were added. After one hour, the color development was measured. The color development was quantified with a charge coupled device (CCD) - camera and an image processing system. The values obtained from the CCD camera range from 0 to 3000 mAU, similar to a standard 96-well plate ELISA-reader.
(§3) Affinity is reported qualitatively using a categorical four-point scale, such that an affinity score of “0” denotes lowest affinity and an affinity score of “4” denotes highest affinity.

[20] = biological target: T5, Amino acid residues 146-165 of human …; assay: as above
Protocol: as §2, §3

[21] = biological target: T2, Amino acid residues 122-141 of human …; assay: as above
Protocol: as §2, §3

[22] = biological target: T13, Amino acid residues 9-28 of human TNFR2 (human); assay: as above
T13 peptide: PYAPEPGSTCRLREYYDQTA
Protocol: as §2, §3

[23] = biological target: T14, Amino acid residues 50-69 of human TNFR2 (human); assay: as above
T14 peptide: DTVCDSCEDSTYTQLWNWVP
Protocol: as §2, §3

[24] = biological target: T15, Amino acid residues 130-149 of human TNFR2 (human); assay: as above
T15 peptide: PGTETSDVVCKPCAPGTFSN
Protocol: as §2, §3

[25] = biological target: T16, Amino acid residues 17-36 of human TNFR2 (human); assay: as above
T16 peptide: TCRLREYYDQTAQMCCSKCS
Protocol: as §2, §3

[26] = biological target: T3, Amino acid residues 138-157 of human …; assay: as above
Protocol: as §2, §3

[27] = biological target: T17, Amino acid residues 90-109 of human TNFR2 (human); assay: as above
T17 peptide: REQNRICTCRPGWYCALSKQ
Protocol: as §2, §3

[28] = biological target: T18, Amino acid residues 42-61 of human TNFR2 (human); assay: as above
T18 peptide: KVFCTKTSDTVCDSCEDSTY
Protocol: as §2, §3

[29] = biological target: T19, Amino acid residues 154-174 of human TNFR2 (human); assay: as above
T19 construct: The printed range 154-174 spans 21 residues, but the printed peptide has 20
T19 peptide: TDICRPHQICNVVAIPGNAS
Protocol: as §2, §3

[30] = biological target: T20, Amino acid residues 170-189 of human TNFR2 (human); assay: as above
T20 peptide: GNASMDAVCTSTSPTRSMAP
Protocol: as §2, §3

[31] = biological target: T21, Amino acid residues 1-20 of human TNFR2 (human); assay: as above
T21 peptide: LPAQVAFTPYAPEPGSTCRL
Protocol: as §2, §3

[32] = biological target: T22, Amino acid residues 58-77 of human TNFR2 (human); assay: as above
T22 peptide: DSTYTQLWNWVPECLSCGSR
Protocol: as §2, §3

[33] = biological target: T23, Amino acid residues 114-133 of human TNFR2 (human); assay: as above
T23 peptide: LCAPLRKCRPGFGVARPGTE
Protocol: as §2, §3

[34] = biological target: T23, Amino acid residues 114-133 of human …; assay: ELISA on plate-coated linear peptide S04074
Protocol: as §1

[35] = biological target: T4, Amino acid residues 106-125 of human TNFR2 (human); assay: ELISA on plate-coated linear peptide S04073
[36] = biological target: T9, Amino acid residues 26-45 of human TNFR2 (human); assay: ELISA on plate-coated linear peptide S03933; Affinity cell of this row is '1+'
[37] = biological target: T9, Amino acid residues 26-45 of human TNFR2 (human); assay: ELISA on plate-coated linear peptide S03933
[38] = biological target: T10, Amino acid residues 98-117 of human TNFR2 (human); assay: ELISA on plate-coated linear peptide S04072
[39] = biological target: T15, Amino acid residues 130-149 of human …; assay: ELISA on plate-coated linear peptide S04076
Protocol: as §1

[40] = biological target: T21, Amino acid residues 1-20 of human TNFR2; assay: ELISA on plate-coated linear peptide S04062
Protocol: as §1

[41] = biological target: T10, Amino acid residues 98-117 of human TNFR2 (human); assay: ELISA on plate-coated linear peptide S04072; Affinity cell of this row is '1+'
[42] = biological target: T12, Amino acid residues 108-127 of human TNFR2 (human); assay: ELISA on plate-coated linear peptide S03935
[43] = biological target: T12, Amino acid residues 108-127 of human TNFR2 (human); assay: ELISA on plate-coated linear peptide S03935; Affinity cell of this row is '2+-'
[44] = biological target: T9, Amino acid residues 26-45 of human TNFR2 (human); assay: ELISA on TNFR2 peptide, antibody alone
[45] = biological target: T10, Amino acid residues 98-117 of human TNFR2 (human); assay: ELISA on TNFR2 peptide, antibody alone
[46] = biological target: T11, Amino acid residues 34-53 of human TNFR2 (human); assay: ELISA on TNFR2 peptide, antibody alone
[47] = biological target: T13, Amino acid residues 9-28 of human TNFR2; assay: ELISA on TNFR2 peptide, antibody alone
Protocol: as §1

[48] = biological target: T14, Amino acid residues 50-69 of human TNFR2; assay: ELISA on TNFR2 peptide, antibody alone
Protocol: as §1

[49] = biological target: T16, Amino acid residues 17-36 of human TNFR2; assay: ELISA on TNFR2 peptide, antibody alone
Protocol: as §1

[50] = biological target: T18, Amino acid residues 42-61 of human TNFR2; assay: ELISA on TNFR2 peptide, antibody alone
Protocol: as §1

[51] = biological target: T20, Amino acid residues 170-189 of human …; assay: ELISA on TNFR2 peptide, antibody alone
Protocol: as §1

[52] = biological target: T22, Amino acid residues 58-77 of human TNFR2; assay: ELISA on TNFR2 peptide, antibody alone
Protocol: as §1

[53] = biological target: T19, Amino acid residues 154-174 of human …; assay: ELISA on plate-coated linear peptide S04079
Protocol: as §1

B1: agonistic TNFR2 antibody TNFRAG1 (antibody, V domains shown)
VH: EVQLQQFGAELVKPGASVKISCKASGYTFTDYNIDWVKQSHGKSLEWIGDINPNYDSTSYSQKFRGKATLTVDKSSSTAYMELRSLTSEDTAVYYCARGNSWYFDVWGAGTTVTVSS
VL: QIVLTQSPALMSASPGEKVTMTCSASSSVRYMYWYQQKPRSSPKPWIYLTSNLASGVPARFSGSGSGTSYSLTISSMEAEDAATYYCQQWSSNPLTFGAGTKLELK
notes: It was detected with secondary antibodies against rodent IgG; also called monoclonal TNFR2 antibody TNFRAG1; TNFR2 agonist antibody
- binding result [1]: no binding
- binding result [2]: no binding
- binding result [3]: no binding
- Reading [4]: 0
- Affinity Score (affinity score (0 lowest to 4 highest)) [5]: 4
- binding result [6]: no binding
- Reading [7]: 2
- Reading [8]: 2
- Reading [9]: 2
- Reading [10]: 2
- Affinity Score (affinity score (0 lowest to 4 highest)) [11]: 1
- Affinity Score (affinity score (0 lowest to 4 highest)) [12]: 1
- Affinity Score (affinity score (0 lowest to 4 highest)) [13]: 0
- Affinity Score (affinity score (0 lowest to 4 highest)) [14]: 0
- Affinity Score (affinity score (0 lowest to 4 highest)) [15]: 2
- Affinity Score (affinity score (0 lowest to 4 highest)) [16]: 0
- Affinity Score (affinity score (0 lowest to 4 highest)) [17]: 2
- Affinity Score (affinity score (0 lowest to 4 highest)) [18]: 0
- Affinity Score [19]: 0 affinity score (0 lowest to 4 highest)
- Affinity Score [20]: 0 affinity score (0 lowest to 4 highest)
- Affinity Score [21]: 0 affinity score (0 lowest to 4 highest)
- Affinity Score [22]: 0 affinity score (0 lowest to 4 highest)
- Affinity Score [23]: 0 affinity score (0 lowest to 4 highest)
- Affinity Score [24]: 0 affinity score (0 lowest to 4 highest)
- Affinity Score [25]: 0 affinity score (0 lowest to 4 highest)
- Affinity Score [26]: 0 affinity score (0 lowest to 4 highest)
- Affinity Score [27]: 2 affinity score (0 lowest to 4 highest)
- Affinity Score [28]: 0 affinity score (0 lowest to 4 highest)
- Affinity Score [29]: 0 affinity score (0 lowest to 4 highest)
- Affinity Score [30]: 0 affinity score (0 lowest to 4 highest)
- Affinity Score [31]: 0 affinity score (0 lowest to 4 highest)
- Affinity Score [32]: 0 affinity score (0 lowest to 4 highest)
- Affinity Score [33]: 0 affinity score (0 lowest to 4 highest)
- binding result [34]: no binding
- Affinity [35]: 2
- Reading [36]: 0
- Affinity [37]: 1
- Affinity [38]: 1
- binding result [39]: no binding
- binding result [40]: no binding
- Reading [41]: 0
- Affinity [42]: 2
- Reading [43]: 0
- Affinity [44]: 1
- Reading [44]: 0.1
- Affinity [45]: 1
- Reading [45]: 2
- Affinity [46]: 1
- binding result [47]: no binding
- binding result [48]: no binding
- binding result [49]: no binding
- binding result [50]: no binding
- binding result [51]: no binding
- binding result [52]: no binding
- binding result [53]: no binding
